# Source: patent US20230293638A1 (Eli Lilly, published 2023)
# Numbered stars: 1 amine (or outer) side, 2 acyl side, 3 side chain; on linkers, the order of the positions; unused ones are H or OH. Square brackets hold non-standard residues; d marks the D form. Side chains are listed from the residue outwards. Ends that are not written are not given here. * marks the point of attachment. C20 diacid = O=C(O)CCCCCCCCCCCCCCCCCCC(=O)*; αMePhe(2-F) = C[C@](N)(Cc1ccccc1F)C(=O)O; γGlu = O=C(O)[C@H](CCC(=O)[*:2])N[*:1]; αMeF = C[C@](N)(Cc1ccccc1)C(=O)O; αMeL = CC(C)C[C@](C)(N)C(=O)O; cTA = not defined here; AEEA = NCCOCCOCC(=O)O; Aib = CC(C)(N)C(=O)O
# Molecular target: human GLP-1 receptor (human, UniProt P43220 24-463)
# Experiment: cell-based or functional assay
row,Binder,hGLPIR cAMP EC50 ratio
1,YXEGTXTSDYSIXLDKKAQXEFIEYLIEGGPSSG (Aib2; αMeF6; αMeL13; K17((2-[2-(2-Amino-ethoxy)-ethoxy]-acetyl)2-(γGlu)-CO-(CH2)18-CO2H); Aib20; C-terminal NH2) [Peptide 123],1.58
2,YXEGTXTSDYSIXLDEKAQXAFIEYLIEGGPSSGAPPPS (Aib2; αMeF6; αMeL13; K17((2-[2-(2-Amino-ethoxy)-ethoxy]-acetyl)2-(γGlu)-CO-(CH2)18-CO2H); Aib20; C-terminal NH2) [Peptide 115],0.743
3,YXEGTXTSDYSIXLDKKAQHXFIEYLIEGGPSSGAPPPS (Aib2; αMeF6; αMeL13; K17((2-[2-(2-Amino-ethoxy)-ethoxy]-acetyl)2-(γGlu)-CO-(CH2)18-CO2H); Aib21; C-terminal NH2) [Peptide 144],0.851
4,YXEGTFTSDYSIXLDKKAQXAFIEYLIEGGPSSGAPPPS (Aib2; αMeL13; K17((2-[2-(2-Amino-ethoxy)-ethoxy]-acetyl)2-(γGlu)-CO-(CH2)18-CO2H); Aib20; C-terminal NH2) [Peptide 20],0.577
5,YXEGTXTSDXSIXLDEKAQXEFIEYLIEGGPSSGAPPPS (Aib2; αMeF(2F)6; cTA10; αMeL13; K17((2-[2-(2-Amino-ethoxy)-ethoxy]-acetyl)2-(γGlu)-CO-(CH2)18-CO2H); Aib20; C-terminal NH2) [Peptide 155],0.0978
6,YXEGTXTSDYSIXLDKKAQXAFIEYLIEAGPSSGAPPPS (Aib2; αMeF6; αMeL13; K17((2-[2-(2-Amino-ethoxy)-ethoxy]-acetyl)2-(γGlu)-CO-(CH2)18-CO2H); Aib20; C-terminal NH2) [Peptide 126],0.869
7,YXEGTXTSDYSIXLDEKAQXEFIXYLIEGGPSSGAPPPS (Aib2; αMeF(2F)6; αMeL13; K17((2-[2-(2-Amino-ethoxy)-ethoxy]-acetyl)2-(γGlu)-CO-(CH2)18-CO2H); Aib20; Aad24; C-terminal NH2) [Peptide 147],1.13
8,YXEGTXTSDLSILLDKKAQXAFIEYLIEGGPSSGAPPPS (Aib2; αMeF6; K17((2-[2-(2-Amino-ethoxy)-ethoxy]-acetyl)2-(γGlu)-CO-(CH2)18-CO2H); Aib20; C-terminal NH2) [Peptide 129],0.543
9,YXEGTXTSDHSIXLDXKAQXTFIXYLIEGGPSSGAPPPS (Aib2; αMeF(2F)6; αMeL13; Orn16; K17((2-[2-(2-Amino-ethoxy)-ethoxy]-acetyl)2-(γGlu)-CO-(CH2)18-CO2H); Aib20; D-Glu24; C-terminal NH2) [Peptide 171],0.0609
10,YXEGTXTSDHSIXLDEKAQXTFIXYLIEGGPSSGAPPPS (Aib2; αMeF(2F)6; αMeL13; K17((2-[2-(2-Amino-ethoxy)-ethoxy]-acetyl)2-(γGlu)-CO-(CH2)16-CO2H); Aib20; D-Glu24; C-terminal NH2) [Peptide 169],0.0136
11,YXEGTXTSDYSIXLDEKAQXEFIHYLIEGGPSSGAPPPS (Aib2; αMeF(2F)6; αMeL13; K17((2-[2-(2-Amino-ethoxy)-ethoxy]-acetyl)2-(γGlu)-CO-(CH2)18-CO2H); Aib20; C-terminal NH2) [Peptide 153],0.501
12,YXEGTXTSDYSIXLDKKAQXXFIEYLIEGGPSSGAPPPS (Aib2; αMeF6; αMeL13; K17((2-[2-(2-Amino-ethoxy)-ethoxy]-acetyl)2-(γGlu)-CO-(CH2)18-CO2H); Aib20; Aad21; C-terminal NH2) [Peptide 137],1.25
13,YXEGTXTSDHSILLDKKAQXAFIEYLIEGGPSSGAPPPS (Aib2; αMeF6; K17((2-[2-(2-Amino-ethoxy)-ethoxy]-acetyl)2-(γGlu)-CO-(CH2)18-CO2H); Aib20; C-terminal NH2) [Peptide 128],0.7
14,YXEGTXTSDXSIXLDEKAQXEFIEYLIEGGPSSGAPPPS (Aib2; αMeF(2F)6; 3Pal10; αMeL13; K17((2-[2-(2-Amino-ethoxy)-ethoxy]-acetyl)2-(γGlu)-CO-(CH2)18-CO2H); Aib20; C-terminal NH2) [Peptide 157],1.25
15,YXEGTXTSDYSIXLDEKAQXEFIAYLIEGGPSSGAPPPS (Aib2; αMeF(2F)6; αMeL13; K17((2-[2-(2-Amino-ethoxy)-ethoxy]-acetyl)2-(γGlu)-CO-(CH2)18-CO2H); Aib20; C-terminal NH2) [Peptide 148],0.859
16,YXEGTXTSDHSIXLDEKAQXTFIXYLIEGGPSSGAPPPS (Aib2; αMeF(2F)6; αMeL13; K17((2-[2-(2-Amino-ethoxy)-ethoxy]-acetyl)2-(γGlu)-CO-(CH2)18-CO2H); Aib20; D-Glu24; C-terminal NH2) [Peptide 168],0.0323
17,YXEGTXTSDYSIXLDKKAQXAFIEYLIEGGPSSGAPPPS (Aib2; αMeF6; αMeL13; K17((2-[2-(2-Amino-ethoxy)-ethoxy]-acetyl)2-(γGlu)2-CO-(CH2)18-CO2H); Aib20; C-terminal NH2) [Peptide 125],1.31
18,YXEGTXTSDYSIXLDKKAQXTFIEYLIEGGPSSGAPPPS (Aib2; αMeF6; αMeL13; K17((2-[2-(2-Amino-ethoxy)-ethoxy]-acetyl)2-(γGlu)-CO-(CH2)18-CO2H); Aib20; C-terminal NH2) [Peptide 139],1.13
19,YXEGTXTSDYSIXLDEKAQXEFISYLIEGGPSSGAPPPS (Aib2; αMeF(2F)6; αMeL13; K17((2-[2-(2-Amino-ethoxy)-ethoxy]-acetyl)2-(γGlu)-CO-(CH2)18-CO2H); Aib20; C-terminal NH2) [Peptide 150],0.79
20,YXEGTXTSDYSIXLDEKAQXEFIPYLIEGGPSSGAPPPS (Aib2; αMeF(2F)6; αMeL13; K17((2-[2-(2-Amino-ethoxy)-ethoxy]-acetyl)2-(γGlu)-CO-(CH2)18-CO2H); Aib20; C-terminal NH2) [Peptide 151],0.0278
21,YXEGTXTSDYSIXLDEKAQXEFIXYLIEGGPSSGAPPPS (Aib2; αMeF(2F)6; αMeL13; K17((2-[2-(2-Amino-ethoxy)-ethoxy]-acetyl)2-(γGlu)-CO-(CH2)18-CO2H); Aib20; Aib24; C-terminal NH2) [Peptide 152],0.484
22,YXEGTXTSDYSIXLDEKAQXEFIVYLIEGGPSSGAPPPS (Aib2; αMeF(2F)6; αMeL13; K17((2-[2-(2-Amino-ethoxy)-ethoxy]-acetyl)2-(γGlu)-CO-(CH2)18-CO2H); Aib20; C-terminal NH2) [Peptide 149],0.484
23,YXEGTXTSDYSIXLDKKAQXDFIEYLIEGGPSSGAPPPS (Aib2; αMeF6; αMeL13; K17((2-[2-(2-Amino-ethoxy)-ethoxy]-acetyl)2-(γGlu)-CO-(CH2)18-CO2H); Aib20; C-terminal NH2) [Peptide 140],1.16
24,YXEGTXTSDYSIXLDEKAQXEFIEYLIEGGPSSGAPPPS (Aib2; αMeF(2F)6; αMeL13; K17((2-[2-(2-Amino-ethoxy)-ethoxy]-acetyl)2-(γGlu)-CO-(CH2)18-CO2H); Aib20; C-terminal NH2) [Peptide 118],1.13
25,YXEGTXTSDYSIXLDKKAQXXFIEYLIEGGPSSGAPPPS (Aib2; αMeF6; αMeL13; K17((2-[2-(2-Amino-ethoxy)-ethoxy]-acetyl)2-(γGlu)-CO-(CH2)18-CO2H); Aib20; Aib21; C-terminal NH2) [Peptide 143],0.714
26,Y[Aib]EGT[αMePhe(2-F)]TSDHSI[αMeL]LDEK([AEEA-AEEA-γGlu-C20 diacid])AQ[Aib]EFIEYLIEGGPSSGAPPPS-NH2 (N-terminus assumed; SMILES CC[C@H](C)[C@H](NC(=O)[C@H](CC(C)C)NC(=O)[C@H](Cc1ccc(O)cc1)NC(=O)[C@H](CCC(=O)O)NC(=O)[C@@H](NC(=O)[C@H](Cc1ccccc1)NC(=O)[C@H](CCC(=O)O)NC(=O)C(C)(C)NC(=O)[C@H](CCC(N)=O)NC(=O)[C@H](C)NC(=O)[C@H](CCCCNC(=O)COCCOCCNC(=O)COCCOCCNC(=O)CC[C@H](NC(=O)CCCCCCCCCCCCCCCCCCC(=O)O)C(=O)O)NC(=O)[C@H](CCC(=O)O)NC(=O)[C@H](CC(=O)O)NC(=O)[C@H](CC(C)C)NC(=O)[C@](C)(CC(C)C)NC(=O)[C@@H](NC(=O)[C@H](CO)NC(=O)[C@H](Cc1c[nH]cn1)NC(=O)[C@H](CC(=O)O)NC(=O)[C@H](CO)NC(=O)[C@@H](NC(=O)[C@](C)(Cc1ccccc1F)NC(=O)[C@@H](NC(=O)CNC(=O)[C@H](CCC(=O)O)NC(=O)C(C)(C)NC(=O)[C@@H](N)Cc1ccc(O)cc1)[C@@H](C)O)[C@@H](C)O)[C@@H](C)CC)[C@@H](C)CC)C(=O)N[C@@H](CCC(=O)O)C(=O)NCC(=O)NCC(=O)N1CCC[C@H]1C(=O)N[C@@H](CO)C(=O)N[C@@H](CO)C(=O)NCC(=O)N[C@@H](C)C(=O)N1CCC[C@H]1C(=O)N1CCC[C@H]1C(=O)N1CCC[C@H]1C(=O)N[C@@H](CO)C(N)=O) [Peptide 154],1.23
27,Y[Aib]EGTFTSDYSILLDSK([AEEA-AEEA-γGlu-C20 diacid])AQ[Aib]AFIEYLIEGGPSSGAPPPS-NH2 (N-terminus assumed; SMILES CC[C@H](C)[C@H](NC(=O)[C@H](CC(C)C)NC(=O)[C@H](Cc1ccc(O)cc1)NC(=O)[C@H](CCC(=O)O)NC(=O)[C@@H](NC(=O)[C@H](Cc1ccccc1)NC(=O)[C@H](C)NC(=O)C(C)(C)NC(=O)[C@H](CCC(N)=O)NC(=O)[C@H](C)NC(=O)[C@H](CCCCNC(=O)COCCOCCNC(=O)COCCOCCNC(=O)CC[C@H](NC(=O)CCCCCCCCCCCCCCCCCCC(=O)O)C(=O)O)NC(=O)[C@H](CO)NC(=O)[C@H](CC(=O)O)NC(=O)[C@H](CC(C)C)NC(=O)[C@H](CC(C)C)NC(=O)[C@@H](NC(=O)[C@H](CO)NC(=O)[C@H](Cc1ccc(O)cc1)NC(=O)[C@H](CC(=O)O)NC(=O)[C@H](CO)NC(=O)[C@@H](NC(=O)[C@H](Cc1ccccc1)NC(=O)[C@@H](NC(=O)CNC(=O)[C@H](CCC(=O)O)NC(=O)C(C)(C)NC(=O)[C@@H](N)Cc1ccc(O)cc1)[C@@H](C)O)[C@@H](C)O)[C@@H](C)CC)[C@@H](C)CC)C(=O)N[C@@H](CCC(=O)O)C(=O)NCC(=O)NCC(=O)N1CCC[C@H]1C(=O)N[C@@H](CO)C(=O)N[C@@H](CO)C(=O)NCC(=O)N[C@@H](C)C(=O)N1CCC[C@H]1C(=O)N1CCC[C@H]1C(=O)N1CCC[C@H]1C(=O)N[C@@H](CO)C(N)=O) [Peptide 9],0.314
28,Y[Aib]EGT[αMePhe(2-F)]TSDHSI[αMeL]LDEK([AEEA-AEEA-γGlu-C20 diacid])AQ[Aib]TFI[dE]YLIEGGPSSG-NH2 (N-terminus assumed; SMILES CC[C@H](C)[C@H](NC(=O)[C@H](CC(C)C)NC(=O)[C@H](Cc1ccc(O)cc1)NC(=O)[C@@H](CCC(=O)O)NC(=O)[C@@H](NC(=O)[C@H](Cc1ccccc1)NC(=O)[C@@H](NC(=O)C(C)(C)NC(=O)[C@H](CCC(N)=O)NC(=O)[C@H](C)NC(=O)[C@H](CCCCNC(=O)COCCOCCNC(=O)COCCOCCNC(=O)CC[C@H](NC(=O)CCCCCCCCCCCCCCCCCCC(=O)O)C(=O)O)NC(=O)[C@H](CCC(=O)O)NC(=O)[C@H](CC(=O)O)NC(=O)[C@H](CC(C)C)NC(=O)[C@](C)(CC(C)C)NC(=O)[C@@H](NC(=O)[C@H](CO)NC(=O)[C@H](Cc1c[nH]cn1)NC(=O)[C@H](CC(=O)O)NC(=O)[C@H](CO)NC(=O)[C@@H](NC(=O)[C@](C)(Cc1ccccc1F)NC(=O)[C@@H](NC(=O)CNC(=O)[C@H](CCC(=O)O)NC(=O)C(C)(C)NC(=O)[C@@H](N)Cc1ccc(O)cc1)[C@@H](C)O)[C@@H](C)O)[C@@H](C)CC)[C@@H](C)O)[C@@H](C)CC)C(=O)N[C@@H](CCC(=O)O)C(=O)NCC(=O)NCC(=O)N1CCC[C@H]1C(=O)N[C@@H](CO)C(=O)N[C@@H](CO)C(=O)NCC(N)=O) [Peptide 167],0.0487
29,Y[Aib][cTA]GT[αMeF]TSDYSI[αMeL]LDEK([AEEA-AEEA-γGlu-C20 diacid])AQ[Aib]AFIEYLIEGGPSSGAPPPS-NH2 (reading uncertain) [Peptide 120],0.319
